Measurements: patent US20080242590

Biological target: amyloid β peptide 1-40 (human)

B1: Recombinant Human Neprilysin (R&D Systems) (protein)
chain: YDDGICKSSDCIKSAARLIQNMDATTEPCTDFFKYACGGWLKRNVIPETSSRYGNFDILRDELEVVLKDVLQEPKTEDIVAVQKAKALYRSCINESAIDSRGGEPLLKLLPDIYGWPVATENWEQKYGASWTAEKAIAQLNSKYGKKVLINLFVGTDDKNSVNHVIHIDQPRLGLPSRDYYECTGIYKEACTAYVDFMISVARLIRQEERLPIDENQLALEMNKVMELEKEIANATAKPEDRNDPMLLYNKMTLAQIQNNFSLEINGKPFSWLNFTNEIMSTVNISITNEEDVVVYAPEYLTKLKPILTKYSARDLQNLMSWRFIMDLVSSLSRTYKESRNAFRKALYGTTSETATWRRCANYVNGNMENAVGRLYVEAAFAGESKHVVEDLIAQIREVFIQTLDDLTWMDAETKKRAEEKALAIKERIGYPDDIVSNDNKLNNEYLELNYKEDEYFENIIQNLKFSQSKQLKKLREKVDKDEWISGAAVVNAFYSSGRNQIVFPAGILQPPFFSAQQSNSLNYGGIGMVIGHEITHGFDDNGRNFNKDGDLVDWWTQQSASNFKEQSQCMVYQYGNFSWDLAGGQHLNGINTLGENIADNGGLGQAYRAYQNYIKKNGEEKLLPGLDLNHKQLFFLNFAQVWCGTYRPEYAVNSIKTDVHSPGNFRIIGTLQNSAEFSEAFHCRKNSYMNPEKKCRVW
**Q.** What does the source list for B1?
**A.** Amyloid β 1-40 peptide degradation (remaining peptide by Gyrolab immunoassay), enzyme 2.4 µg/ml, 300 nM peptide, 2.5 h at 37 °C in buffer: degraded 64% of Amyloid β 1-40 peptide (300 nM); degradation of Aβ40 in human plasma compared to vehicle (ELISA), 5 µg/ml, 4 h at 37 °C: degraded Aβ40 with 33% and 70%, respectively
